For experiment [1], the system named is naïve mouse CD4 T cells. Briefly: Expansion of anti-CD3 activated naïve CD4 T cells (total cell numbers, CTV dilution by flow cytometry). To be noted: for CD4 T cell expansion (total live cell number, dilution of cell division dyes): plate bound anti-CD3 10 μg/ml, titrated doses of soluble recombinant TNF, over 4 days. Type of experiment: cell-based. How it is done:
(§1) T cells were isolated from pooled mouse lymph nodes (inguinal, axillary, brachial, superficial cervical and lumbar) and isolated using MACS negative selection kits for CD4+ or CD8+ T cells (Miltenyi Biotec, Auburn, Calif., USA). T cell purity was confirmed by flow cytometry following isolation. For all experiments, T cell purity was between 82.9-98.2%.
(§2) T cells were cultured in RPMI 1640 medium (Invitrogen) supplemented with non-essential amino acids, 1 mM Sodium-pyruvate, 10 mM HEPES, 100 U/ml Penicillin, 100 μg/ml Streptomycin (Invitrogen), 50 μM 2β-mercaptoethanol, 2 mM L-glutamine (Sigma) and 10% FCS (Sigma). Cells were incubated in a humidified environment at 37° C. in 5% CO2. For division tracking experiments, T cells were labelled with Cell Trace Violet (Invitrogen) according to the manufacturer's instructions. T cells were cultured in flat bottom tissue culture plates.
(§3) The following T cell stimulations were used: TCR was stimulated using 10 μg/ml plate bound anti-CD3 (clone 145-2c11, WEHI antibody facility, Australia) unless a different concentration was specified. Recombinant murine TNF was purchased from R&D Systems (Minneapolis, Minn., USA). Recombinant mIL-2 was purchased from Peprotech. Smac-mimetics were purchased from Sellekchem, MA. The TNFR2 agonist mSTAR was prepared according from HEK293 cells were transiently transfected and cells cultured for 5-7 days, supernatants were purified using anti-Flag affinity chromatography, and the concentrations of the recombinant proteins were determined compared to standard proteins.
Triplicate wells were harvested at each time point. To determine absolute cell numbers, the number of live cells per culture was estimated by reference to a known number of Calibrite beads (Becton Dickinson, San Jose, Calif.), added directly to cell culture before collecting. […]
To examine the role of TNFα in T cell co-stimulation, naïve CD4 T cells were isolated from C57Bl/6 mice and stimulated with a range of recombinant mouse TNF concentrations in the presence of T cell receptor (TCR) crosslinking via plate bound anti-CD3 stimulation. CD4 T cells were labelled with the cell division tracking dye cell trace violet (CTV) and the response measured daily over 96 hours by quantifying T cell expansion using flow cytometry.
To determine if the co-stimulation effect of TNF on T cells could be mimicked using an agonist specific for TNFR2, the response of naïve mouse CD4 T cells activated via TCR in the presence of recombinant mouse TNF, or a TNFR2-specific agonist called mSTAR (Rauert et al., 2010; Chopra et al., 2016) was measured. Naïve CD4 T cells were CTV labelled and the response measured by flow cytometry after stimulation with anti-CD3 in the presence of TNF or mSTAR (FIGS. 16 to 19).
(In general: A flow cytometer gives signals particle by particle.)

The subject of experiment [2] is naïve mouse CD8 T cells. Briefly: Expansion of anti-CD3 activated naïve CD8 T cells (total cell numbers, CTV dilution by flow cytometry). The experiment is classed as cell-based. The conditions noted are these: for receptor through which TNF co-stimulates CD8 T cells: CD8 T cells from WT, tnfr1−/− or tnfr2−/− mice, anti-CD3, TNF 5 ng/ml, 4 days. Here is the method: as §1, §2, §3
Triplicate wells were harvested at each time point. To determine absolute cell numbers, the number of live cells per culture was estimated by reference to a known number of Calibrite beads (Becton Dickinson, San Jose, Calif.), added directly to cell culture before collecting. Dead cells were identified via uptake of propidium iodide (SigmaAldrich) added to culture before flow cytometry. Flow cytometry was performed on a BD FACS Canto II or Fortessa.
To determine if TNF co-stimulation was restricted to CD4 T cells, or could act on all effector cells from the T cell lineage, co-stimulation of naïve CD8 T cells by TNFα was measured. Naïve CTV labelled CD8 T cells were cultured in the presence of plate bound anti-CD3 with various concentrations of recombinant mouse TNFα and the response measured by flow cytometry.
Naïve CD8 T cells were isolated from WT mice and stimulated with combinations of anti-CD3, TNF and SMAC mimetics. The expansion of CD8 T cells was determined by measuring T cell numbers quantified relative to a known number of quantification beads via flow cytometry.

The test system of experiment [3] is tnfr1−/− CD4 T cells. Briefly: Expansion of anti-CD3 activated CD4 T cells deficient for TNFR1. To be noted: anti-CD3 10 μg/ml, TNF 5 ng/ml, compared with WT CD4 T cells. Type of experiment: cell-based, mouse. How it is done: (§4) All experiments were performed using C57BL/6 mice bred and maintained under specific pathogen-free conditions in the WEHI animal facilities (Parkville, Victoria, Australia) and used between 8-20 weeks of age. All experiments were performed under the approval of the WEHI Animal Ethics Committee. Tnfr1−/− and Tnfr2−/− mice were maintained at the WEHI.
(§5) T cells were isolated from pooled mouse lymph nodes (inguinal, axillary, brachial, superficial cervical and lumbar) and isolated using MACS negative selection kits for CD4+ or CD8+ T cells (Miltenyi Biotec, Auburn, Calif., USA). T cell purity was confirmed by flow cytometry following isolation. For all experiments, T cell purity was between 82.9-98.2%. […]
(§6) The following T cell stimulations were used: TCR was stimulated using 10 μg/ml plate bound anti-CD3 (clone 145-2c11, WEHI antibody facility, Australia) unless a different concentration was specified. […] The TNFR2 agonist mSTAR was prepared according from HEK293 cells were transiently transfected and cells cultured for 5-7 days, supernatants were purified using anti-Flag affinity chromatography, and the concentrations of the recombinant proteins were determined compared to standard proteins. […]
(§7) To determine the role of TNF receptors 1 (TNFR1) and 2 (TNFR2) as regulators of TNFα driven T cell co-stimulation, the response of T cells deficient for either TNFR1 or TNFR2 was measured. […]

The test system of experiment [4] is tnfr2−/− CD4 T cells. Briefly: Expansion of anti-CD3 activated CD4 T cells deficient for TNFR2. The experiment is classed as cell-based, mouse. To be noted: anti-CD3 10 μg/ml, TNF 5 ng/ml. Here is the method:
as §4, §5, §6, §7

For experiment [5], the system named is mouse CD8 T cells. Briefly: Cytokine bead array: IFNγ production by TCR activated CD8 T cells. The experiment is classed as cell-based. To be noted: anti-CD3 10 μg/ml. Here is the method: Supernatant was removed from T cell cultures at 48 hours and CBAs performed to measure IFNγ production. Data represent mean for duplicate samples. ND=none detected.
as §3
Supernatant from T cell cultures 48 hours after activation as described above were used to measure cytokine production (IL-2, IL-4, IL-6, IFN-γ, TNF, IL-17A and IL-10) using the Th1/Th2/Th17 BD Cytometric Bead Array (CBA) Kit (BD Bioscience). The CBA assay was performed according to manufacturer's instructions.
The effect of TNFR2 co-stimulation with TNF on the differentiation of TCR activated CD8 T cells was determined. […] This effect was synergised by the addition of smac-mimetics or IL-2 (FIG. 23).

Experiment [6] deals with CD8 T cells deficient for TNFR2. Briefly: Co-stimulation of anti-CD3 activated CD8 T cells deficient for TNFR2 (dilution of cell tracking dyes). The conditions noted are these: anti-CD3 10 μg/ml, mSTAR 5 ng/ml, 72 hours. Type of experiment: cell-based, mouse. How it is done:
Data are representative examples of triplicate cultures.
as §4, §5
The following T cell stimulations were used: TCR was stimulated using 10 μg/ml plate bound anti-CD3 (clone 145-2c11, WEHI antibody facility, Australia) unless a different concentration was specified. […] The TNFR2 agonist mSTAR was prepared according from HEK293 cells were transiently transfected and cells cultured for 5-7 days, supernatants were purified using anti-Flag affinity chromatography, and the concentrations of the recombinant proteins were determined compared to standard proteins.

Setting [7] is: anti-CD3 10 μg/ml, TNF 5 ng/ml or mSTAR 5 ng/ml, 72 hours.

“Also recorded” adds a separate entry of the source.

B1: TNF: Recombinant murine TNF purchased from R&D Systems; wild type, not TNFR2-specific (protein)
chain: LRSSSQNSSDKPVAHVVANHQVEEQLEWLSQRANALLANGMDLKDNQLVVPADGLYLVYSQVLFKGQGCPDYVLLTHTVSRFAISYQEKVNLLSAVKSPCPKDTPEGAELKPWYEPIYLGGVFQLEKGDQLSAEVNLPKYLDFAESGQVYFGVIAL
As to B1, the “receptor through which TNF co-stimulates CD4 T cells” value in experiment [1] (CD4 T cells from WT, tnfr1−/− or tnfr2−/− mice, anti-CD3, TNF 5 ng/ml, 4 days) is “act exclusively through TNFR2; also recorded: co-stimulates CD4 T cells through TNFR2”. Moreover, the “CD4 T cell expansion (total live cell number, dilution of cell division dyes)” value was “promotes CD4 T cell division and expansion” in experiment [1]; “significantly enhanced CD4 T cell expansion in a dose dependent manner” in experiment [1] (listed as TNFα). Moreover, the “receptor through which TNF co-stimulates CD8 T cells” value in experiment [2] is listed as “co-stimulates CD8 T cells through TNFR2”; in experiment [2] (listed as TNFα), “mediated exclusively by TNFR2”. In experiment [2] (plate bound anti-CD3 10 μg/ml, titrated doses of soluble recombinant TNF, over 4 days), the “CD8 T cell expansion (total CD8 T cell numbers, dilution of division tracking dyes)” value is “potent co-stimulator of CD8 T cells; also recorded: potent co-stimulation factor to promote CD8 T cell division and expansion”. Moreover, in experiment [3], the “response of tnfr1−/− CD4 T cells to TNF co-stimulation” value was “indistinguishable from WT CD4 T cells”. Besides, the “co-stimulation of CD4 T cells in the absence of TNFR2” value in experiment [4] is “no co-stimulation”. Also, the IFNγ production result in experiment [5] (TNF 5 ng/ml, supernatant at 48 hours) is “significantly increased; also recorded: increases IFNγ production”.

B2: IL-2: Recombinant mIL-2 purchased from Peprotech (protein, UniProt P04351 21-169, looked up)
Interleukin-2: APTSSSTSSSTAEAQQQQQQQQQQQQHLEQLLMDLQELLSRMENYRNLKLPRMLTFKFYLPKQATELKDLQCLEDELGPLRHVLDLTQSKSFQLEDAENFISNIRVTVVKLKGSDNTFECQFDDESATVVDFLRRWIAFCQSIISTSPQ
On to B2, for which the “IFNγ production, effect of addition to TNF co-stimulation” value in experiment [5] (TNF 5 ng/ml with Smac-mimetic or IL-2, supernatant at 48 hours) is listed as “synergised”.

B3: mSTAR: TNFR2-specific agonist TNF mutein (Rauert et al., 2010; Chopra et al., 2016), SEQ ID NO:3, produced in HEK293 cells (protein)
chain: ACGCAAAPDIKDLLSRLEELEGLVSSLREQGGGGSLRSSSQNSSDKPVAHVVANHQVEEQLEWLSQRANALLANGMDLKDNQLVVPADGLYLVYSQVLFKGQGCPDYVLLTHTVSRFAISYQEKVNLLSAVKSPCPKDTPEGAELKPWYEPIYLGGVFQLEKGDQLSAEVNLPKYLNFRESGQVYFGVIALGGGGSLRSSSQNSSDKPVAHVVANHQVEEQLEWLSQRANALLANGMDLKDNQLVVPADGLYLVYSQVLFKGQGCPDYVLLTHTVSRFAISYQEKVNLLSAVKSPCPKDTPEGAELKPWYEPIYLGGVFQLEKGDQLSAEVNLPKYLNFRESGQVYFGVIALGGGGSLRSSSQNSSDKPVAHVVANHQVEEQLEWLSQRANALLANGMDLKDNQLVVPADGLYLVYSQVLFKGQGCPDYVLLTHTVSRFAISYQEKVNLLSAVKSPCPKDTPEGAELKPWYEPIYLGGVFQLEKGDQLSAEVNLPKYLNFRESGQVYFGVIAL
In the case of B3, the “CD4 T cell response (dilution of cell tracking dyes, total cell numbers), TNF compared with mSTAR” value in experiment [1] (setting [7]) was “can mimic TNF mediated CD4 T cell activation”. In addition, the “CD8 T cell response (dilution of cell division dyes, total cell numbers), mSTAR compared with TNF” value in experiment [2] (setting [7]) is “can mimic TNF CD8 T cell activation”. Besides, in experiment [6], the “T cell co-stimulation in CD8 T cells deficient for TNFR2” value is recorded as “did not induce any T cell co-stimulation; also recorded: does not activate CD8 T cells in the absence of TNFR2”.
